Laboratory results from paper PMC4414810.

Experiments:
Test in all cases: fluorescence polarisation
[1] = target: HalM2 (haloduracin lanthipeptide synthetase) (Bacillus halodurans C-125)
[2] = target: 5-FAM labeled HalA2 core peptide (Bacillus halodurans C-125)
[3] = target: fluorescein-labeled HalA2 (Bacillus halodurans C-125)
[4] = target: fluorescently-labeled, fully-modified HalA2 peptide (Bacillus halodurans C-125)

| IC50 [1] | Ki [1] | Kd [2] | Kd [3] | Kd [4] | Substance |
| --- | --- | --- | --- | --- | --- |
| 1.2 µM | 1.2 µM | – | – | – | unlabeled HalA2 peptide |
| – | – | 85 µM | – | – | HalCE2 (HalA2 leader peptide attached to the N-terminus of HalM2 through a (GS)15 linker) (enzyme) |
| 5.6 µM | 5.5 µM | – | – | – | unlabeled HalA2 leader peptide |
| – | – | – | 1.9 µM | 10.4 µM | HalM2 (haloduracin lanthipeptide synthetase) (enzyme) |
